Numbering of substitutions follows the chain as printed. Names may count otherwise.

B1: H34 wild type (H34wt) catalytic antibody light chain T93A (protein)
chain: DIQMTQSPSTLSASVGDRVTITCRASQSISSWLAWYQQKPGKAPKVLIYKASTLESGVPLRFSGSGSGTEFTLTISSLQPDDFATYYCQQYSAYRTFGQGTKVEIK
B2: H34 wild type (H34wt) catalytic antibody light chain T97A (protein)
chain: B1 chain with A93T, T96A
B3: H34 wild type (H34wt) catalytic antibody light chain R96P (protein)
chain: B1 chain with A93T, R95P
B4: H34 wild type (H34wt) catalytic antibody light chain D1A (protein)
chain: B1 chain with D1A, A93T
B5: H34 wild type (H34wt) catalytic antibody light chain R96A (protein)
chain: B1 chain with A93T, R95A

The target of the first experiment is recombinant PD-1 molecule (rPD-1), Q15116. Put plainly: ELISA. Particulars: chain shown with the change; L-chain 4 µM; coated antigen (rPD1): 2 µg/mL and 50 µL/well; parent: est. 0.94; read off a plot. A general note: ELISA stands for enzyme-linked immunosorbent assay.
recombinant PD-1 molecule (rPD-1), Q15116, sequence (Q15116 25-167): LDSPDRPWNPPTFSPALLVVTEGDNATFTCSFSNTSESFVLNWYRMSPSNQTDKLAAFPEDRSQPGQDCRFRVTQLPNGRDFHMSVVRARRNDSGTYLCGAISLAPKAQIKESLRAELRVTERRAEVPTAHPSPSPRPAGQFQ
Turning to B1, the response was 0.69 OD (490nm).

Consider B2, for which the response is 1.15 OD (490nm).

For B3, the response is 0.09 OD (490nm).

Take B4: the response is 1.12 OD (490nm).

For the molecule B5, the response is 0.07 OD (490nm).

The experiment is the same for the next values; noted with them: chain shown with the change; L-chain 20 µM (prozone region for this mutant); coated antigen (rPD1): 2 µg/mL and 50 µL/well; parent: est. 1.14; read off a plot.
Regarding B2, the response is 0.61 OD (490nm).

With B4, the response is 0.63 OD (490nm).

Staying with this experiment, now noted: chain shown with the change; L-chain 20 µM; coated antigen (rPD1): 2 µg/mL and 50 µL/well; parent: est. 1.14; read off a plot.
For the molecule B1, the response is 1.1 OD (490nm).

Take B3: the response was 0.13 OD (490nm).

Consider B5, for which the response is 0.16 OD (490nm).

(Values after article PMC9649737.)
